Assay results as given in patent publication US20200109188A1.
Residue numbers refer to the chain shown, from its start.

B1: Antibody 5 (antibody, V domains shown)
VH: QVQLQQSGPGLVKPSQTLSLTCAISGDRVSSNSAVWNWIRQSPSRGLEWLGRTYYRSKWYYDYAESVKSRIVIDPDTSKNQVSLQLNSVTPEDSAIYYCARGGHITVFGLNIDAYDIWGQGAMVTVSS
VL: DIQMTQSPSSLSASVGDRVTISCRAQSLSSYLHWYQQKPGQPPKLLIYAATTLQSGVPSRFSGSGSGTDFTLTISTFQAEDVATYYCQQSRTFGQGTKVEIK
B2: Antibody 6 (antibody, V domains shown)
VH: B1 VH with V107E
VL: B1 VL
B3: Antibody 10 (antibody, V domains shown)
VH: QVQLQQSGPGLVKPSQTLSLTCAISGDSVSSNSATWNWIRQSPSRGLEWLGRTYYRSKWYNDYADFLKRRITINPDTSNNEVSLRLTSVTPDDTALYYCARGGHITVFGVNIDAFDVWGQGTMVTVSS
VL: DIQMTQSPSSLSASVGDRITISCRTSQSLRSYLHWYQQKPGKAPKLLIYASSTLQSGVPSRFSGSGSGTDFTLTISNLQPEDFATYYCQLSRTFGQGTKVEIK
B4: Antibody 8 (antibody, V domains shown)
VH: QVQLQQSGPGLVKPSQTLSLTCVISGDTVSSNRATWNWMRQSPLRGLEWLGRTYYRSKWYNDYAVSVKSRVVINPDTSKNQVSLQLNTVTPDDSGVYFCARGGHITVFGVNIDAFDIWGLGTKVTVSS
VL: DIQMTQSPSSLSASVGDRVTISCRASQRLNSYLHWYQQTPGQAPKLLIYATSTLQSGVSPRFSGSGSGTDFTLTISSLQPEDVATYYCQLSRTFGHGTKVEIK

These binders were tested against recombinant HA subtype H9 (A/chicken/HK/G9/97 (H9N2)) (influenza A virus) (assay: ELISA, rHA coated).

Binder | EC50 [mg/L]
B1 | > 6
B2 | > 6
B3 | 2.7
B4 | > 6

Each binder was assayed against recombinant HA subtype H7 (A/Netherlands/219/03 (H7N7)) (influenza A virus) (assay: ELISA, rHA coated).

Binder | EC50 [mg/L]
B1 | 0.024
B2 | 0.116
B3 | 0.034
B4 | 0.015

These binders were tested against recombinant HA subtype H5 (A/Vietnam/1203/04 (H5N1)) (influenza A virus) (assay: ELISA, rHA coated).

Binder | EC50 [mg/L]
B1 | 0.041
B2 | 0.256
B3 | 0.058
B4 | 0.044

What follows are binders tested against recombinant HA subtype H3 (A/Perth/16/09 (H3N2)) (influenza A virus) (assay: ELISA, rHA coated).

Binder | EC50 [mg/L]
B1 | 0.03
B2 | 0.064
B3 | 0.049
B4 | 0.067

Each binder was assayed against recombinant HA subtype H2 (A/Swine/MO/06 (H2N3)) (influenza A virus) (assay: ELISA, rHA coated).

Binder | EC50 [mg/L]
B1 | 0.048
B2 | 0.213
B3 | 0.075
B4 | 0.058

These binders were tested against recombinant HA subtype H6 (A/teal/HK/W312/97 (H6N1)) (influenza A virus) (assay: ELISA, rHA coated).

Binder | EC50 [mg/L]
B1 | 0.047
B2 | 0.214
B3 | 0.097
B4 | 0.091
